From PMC4654587 come the findings set out here.

Test [1] has as its target His6-CsuA/B (N-terminal donor strand sequence replaced by a His6-tag). The settings on record: parent: est. 1.0; read off a plot.
For test [2], the target named is His-tagged EcpB (wild type) (Escherichia coli) (UniProt P77188). Description: SEC.

Consider CsuC (wild type, without tag) R89A, for which the ratio to parent in test [1] came to 0.15.

Turning to CsuC (wild type, without tag) R174A, the ratio to parent in test [1] is 0.5.

With CsuC (wild type, without tag) Y196F, in test [1], the ratio to parent is 0.13.

Regarding “CsuC (wild type, without tag) R89A; Y196F”, in test [1], the ratio to parent worked out at 0.02.

For “EcpA with a Trp11Ala mutation (from UniProt P0AAA3 23-195) (natural protein)”, the stoichiometry N in test [2] is 1.
